Source: patent US11911507B2, “Liposomes comprising polymer-conjugated lipids and related uses” (Yissum Research Development Company of the Hebrew …, priority 2011, dated 2024)

How the values were obtained:
[1] = Retention of liposome-encapsulated inulin fluorescein in rat circulation after tail vein injection; format: in vivo; conditions: rats, blood samples 5 minutes and 28 hours, versus control nanoliposomes (FIG. 6)
Method: FIG. 6: Effect of Pol-PLI on stability of liposomes in rat blood (in vivo): InFl-containing Liposomes were injected to the tail vein of rats, and the retention of drug in the circulation was monitored for 28 hour, by determination of the drug level in blood samples taken 5 minutes and 28 hours after injection, and expressed as percent of the initial, injected InFl amount.

[2] = Size stability of liposomes with different polymer-conjugated lipids on heated incubation, dynamic light scattering; conditions: DMPC liposomes, 55° C., day 1 vs day 17, versus control nanoliposomes
Method: FIG. 3: Size stability of liposomes with different polymer-conjugated lipids (Po-Ls): Liposomes with or without the indicated Po-L were incubated at 55° C. for 17 days, and the change in their size was monitored using dynamic light scattering. […] DMPC=dimyristoyl phosphatidyl-choline; HyPE=HyPE=Hyaluronic acid (HA)-conjugated Phosphatidyl-ethanolamine (PE); Dex (5)-PE=Dextran (MW 5K)-conjugated PE; Dex(40)=Dextran (MW 40K)-conjugated PE; Heta-PE=Hetastarch (hydroxyethylstarch)-conjugated PE; Hem-PE=Hemaccel (Polygeline)-conjugated PE.
The size of the mixed nano-liposomes was determined by dynamic light scattering.

Haemaccel-Glutaryl-phosphatidyl-ethanolamine [Hem-PE]
release of encapsulated drug from nanoliposomes, in vivo [1]: markedly slowed down the drug release
nanoliposome size stability (FIG. 3) [2]: more stable nanoliposome size than control nanoliposomes
